Fewer inactive variants are shown than the library holds.
Legend:
biotinyl-Leu-oxazolone = experiment: self-aminoacylation, catalytic enhancement (BLO) (fold over background); higher = more active; k-Seq, kA / k0A0; sequences stand for … in GGGAAUGGAUCCACAUCUACGAAUUC…UUCACUGCAGACUUGACGAAGCUG
Procedure, shortened: (§1)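 Working in 50 μL HEPES/NaCl/KCl/MgCl2/CaCl2 buffer with 5% acetonitrile at pH 6.9–7.0, mutagenized RNA pools (0.43 μM; 21-nt variable region) were reacted with 2–1250 μM of each biotinyl-aminoacyl-oxazolone for 90 minutes at room temperature. Streptavidin capture followed, with quantification by triplicate qPCR and Illumina sequencing. Catalytic enhancement is reported as median kA over the uncatalyzed rate, the low-activity peak of a bimodal Gaussian fit to the data.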

biotinyl-Val-oxazolone = experiment: self-aminoacylation, catalytic enhancement (BVO) (fold over background); higher = more active; k-Seq, kA / k0A0; sequences stand for … in GGGAAUGGAUCCACAUCUACGAAUUC…UUCACUGCAGACUUGACGAAGCUG
Procedure, shortened: as §1

biotinyl-Met-oxazolone = experiment: self-aminoacylation, catalytic enhancement (BMO) (fold over background); higher = more active; k-Seq, kA / k0A0; sequences stand for … in GGGAAUGGAUCCACAUCUACGAAUUC…UUCACUGCAGACUUGACGAAGCUG
Procedure, shortened: as §1

biotinyl-Trp-oxazolone = experiment: self-aminoacylation, catalytic enhancement (BWO) (fold over background); higher = more active; k-Seq, kA / k0A0; sequences stand for … in GGGAAUGGAUCCACAUCUACGAAUUC…UUCACUGCAGACUUGACGAAGCUG
Procedure, shortened: as §1

biotinyl-Ile-oxazolone = experiment: self-aminoacylation, catalytic enhancement (BIO) (fold over background); higher = more active; k-Seq, kA / k0A0; sequences stand for … in GGGAAUGGAUCCACAUCUACGAAUUC…UUCACUGCAGACUUGACGAAGCUG
Procedure, shortened: as §1

biotinyl-Phe-oxazolone = experiment: self-aminoacylation, catalytic enhancement (BFO) (fold over background); higher = more active; k-Seq, kA / k0A0; sequences stand for … in GGGAAUGGAUCCACAUCUACGAAUUC…UUCACUGCAGACUUGACGAAGCUG
Procedure, shortened: as §1

Row | Sequence | self-aminoacylation (biotinyl-Leu-oxazolone) | self-aminoacylation (biotinyl-Val-oxazolone) | self-aminoacylation (biotinyl-Met-oxazolone) | self-aminoacylation (biotinyl-Trp-oxazolone) | self-aminoacylation (biotinyl-Ile-oxazolone) | self-aminoacylation (biotinyl-Phe-oxazolone)
1 | CCACACUUCAAGCGAGCGGUC [Fam1B.1 aminoacylation ribozyme variant] | 0.93 | 1.11 | 0.603 | 0.744 | 0.983 | 0.929
2 | CCACACUUCAACCAAUCGGCC [Fam1B.1 aminoacylation ribozyme variant] | 1.72 | 2 | 1.55 | 5.45 | 2.12 | 4.99
3 | CCAUUUCAAACAAUCGGUCUG [Fam1A.1 aminoacylation ribozyme variant] | 1.19 | 1.04 | 1.13 | 5.46 | 1.03 | 7.75
4 | AAGUUUACUAAUAGUCGCUAG [Fam3.1 aminoacylation ribozyme variant] | 1.26 | 1.23 | 1.29 | 1.69 | 1.39 | 2.43
5 | CGACUUCAAACCAUCGGUCUG [Fam1A.1 aminoacylation ribozyme variant] | 0.811 | 1.08 | 0.807 | 0.886 | 0.838 | 0.966
6 | AUUCACAUAGGUCAUGGGGUG [Fam2.2 aminoacylation ribozyme variant] | 9.35 | 4.12 | 7.28 | 6.97 | 4.56 | 46.7
7 | GUACUUCAAACAAUCGGGCUG [Fam1A.1 aminoacylation ribozyme variant] | 2.67 | 2.8 | 2.47 | 14.6 | 3.02 | 21.1
8 | CCACACUUCAUGCAAUCGGUG [Fam1B.1 aminoacylation ribozyme variant] | 5.5 | 2.65 | 4.27 | 4.65 | 2.55 | 27
9 | AAGUUUGCUAAUAGUAGCAAG [Fam3.1 aminoacylation ribozyme variant] | 0.95 | 0.993 | 1.02 | 0.96 | 1.04 | 1.22
10 | AUUACCCUAGUUAUCGAGUGA [Fam2.1 aminoacylation ribozyme variant] | 8.3 | 3.83 | 8.68 | 11.1 | 3.77 | 50.7
11 | CUACUCCAACCAAUCGGUCUG [Fam1A.1 aminoacylation ribozyme variant] | 0.855 | 0.706 | 0.74 | 0.879 | 0.623 | 0.726
12 | CUACUCCAAACAAUCUGUCUG [Fam1A.1 aminoacylation ribozyme variant] | 0.716 | 0.766 | 0.578 | 0.506 | 0.799 | 0.973
13 | AUUACCCCGGUCAUCCAGUGA [Fam2.1 aminoacylation ribozyme variant] | 5.88 | 3.06 | 4.93 | 5.63 | 3.52 | 31.4
14 | AUUCACCUAGGUCACCGGGGG [Fam2.2 aminoacylation ribozyme variant] | 3.12 | 3.51 | 3.37 | 4.38 | 3.62 | 21.4
15 | GCACACUUCAAGCCAUCGGUC [Fam1B.1 aminoacylation ribozyme variant] | 2.81 | 2.57 | 2.32 | 3.87 | 2.81 | 8.33
16 | AUUCACCUGGGUCGUCGGGUG [Fam2.2 aminoacylation ribozyme variant] | 2.3 | 2.48 | 2.46 | 2.11 | 1.93 | 6.66
17 | CUACUUCAAAAAAUCGUUCUG [Fam1A.1 aminoacylation ribozyme variant] | 0.57 | 0.613 | 0.564 | 0.581 | 0.605 | 1.03
18 | CCACACUUCAAGUAUUCGGUC [Fam1B.1 aminoacylation ribozyme variant] | 1.39 | 1.64 | 1.42 | 1.52 | 1.63 | 0.932
19 | CUACUACAAACAAUCGUUCUG [Fam1A.1 aminoacylation ribozyme variant] | 0.538 | 0.649 | 0.468 | 0.338 | 0.648 | 0.604
20 | CUACUUCAAACAGUCGGACUG [Fam1A.1 aminoacylation ribozyme variant] | 0.564 | 0.826 | 0.697 | 0.682 | 0.853 | 0.77
21 | AUUACCCUGGUCAUCGGGUGU [Fam2.1 aminoacylation ribozyme variant] | 136 | 56.5 | 123 | 133 | 40.7 | 722
22 | AUUGCCCUUGUCAUCGAGUGA [Fam2.1 aminoacylation ribozyme variant] | 7.02 | 3.88 | 7.03 | 8.3 | 3.38 | 42.1
23 | CCACACUUCAAGCAAGCAGUC [Fam1B.1 aminoacylation ribozyme variant] | 0.861 | 0.857 | 0.645 | 0.475 | 0.721 | 0.916
24 | ACUACCUUGGUCAUCGAGUGA [Fam2.1 aminoacylation ribozyme variant] | 4.02 | 3.23 | 3.77 | 5.82 | 2.96 | 10.5
25 | CUACUCCAAACAAUAGGUCUG [Fam1A.1 aminoacylation ribozyme variant] | 0.744 | 0.776 | 0.938 | 0.734 | 0.839 | 1.17
26 | AUUGCCCUGGUCAACGAGUGA [Fam2.1 aminoacylation ribozyme variant] | 6.71 | 3.53 | 6.85 | 7.12 | 3.3 | 49.1
